The text below walks through data of the supplement of paper PMC10567573.

± gives the standard deviation.

This data set can be described thus: protein stability index of a GFP-peptide fusion (GPS, HEK-293T) (PSI 1-6); higher = more stable. The settings on record: c terminus: a fixed tail appended.
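Also: 24-mer peptide tiles fused after GFP, lentivirally expressed, FACS-sorted into six equal bins by GFP/DsRed ratio, decoded by Illumina sequencing, PSI is the read-weighted mean bin number.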

On to AAPFRFVARPVRFPREHQFFEDGD [ZNF511], for which the protein stability index by setting is: (treatment: DMSO) 2.85 ± 0.56; (treatment: MLN4924 1 uM, 8 h) 3.28 ± 0.62. The corresponding values for QLKEEMARHLREYQELLNVKMALD [PRPH] are 3.32 ± 0.22 and 3.5 ± 0.36. For LIGLISDRLRRNWPPSFLSEFRAL [SPNS1], in that order: 2.19 ± 0.35 and 2.1 ± 0.2. On to HKHVHFSSSFTSIASEWFLIANRS [SLC22A15], for which the protein stability index is 2.43 ± 0.57 (treatment: DMSO) and 2.04 ± 0.33 (treatment: MLN4924 1 uM, 8 h). In turn, NSCINPIALYFVSKKFKNCFQSCL [EDNRA] showed a protein stability index (treatment: DMSO) of 3.27 ± 0.34. For the sequence RMEYVHSKNLIYRDVKPENFLIGR [CSNK1G1], the protein stability index was 2.45 ± 0.16 (treatment: DMSO) and 2.79 ± 0.31 (treatment: MLN4924 1 uM, 8 h). With FLSLDIPIGELYGLSESSGPHTIS [ACSBG2], the protein stability index (treatment: DMSO) turned out to be 2.39 ± 0.4 and the protein stability index (treatment: MLN4924 1 uM, 8 h) was found to be 2.47 ± 0.36. Consider TGANTKKPEDTAEDLTAKRKRMKM [FAM9B], for which the protein stability index came to 5.4 ± 0.28 (treatment: DMSO) and 5.15 ± 0.51 (treatment: MLN4924 1 uM, 8 h). The corresponding values for LSDEDDGFVDLLDGENLKNEEETP [CDC25A] are 5.48 ± 0.33 and 5.4 ± 0.31. Consider VPGIFCAGADLKERAKMSSSEVGP [AUH], for which the protein stability index was determined as 3.59 ± 0.34 (treatment: DMSO) and 3.64 ± 0.29 (treatment: MLN4924 1 uM, 8 h). As to LPDELGSQLPQVLHVSLGQKLVAA [MOSPD3], the protein stability index reads like this: (treatment: DMSO) 3 ± 0.34; (treatment: MLN4924 1 uM, 8 h) 3.14 ± 0.089. As to IIQYRLPMKKNNNLYSWDDFMELG [ACSBG2], the protein stability index by setting is: (treatment: DMSO) 2.12 ± 0.32; (treatment: MLN4924 1 uM, 8 h) 1.98 ± 0.25.

FMRTDNTCVNLLLEASNYQMMPYM [KLHL13]: the protein stability index came out at 2.46 ± 0.58 (treatment: DMSO) and 2.24 ± 0.36 (treatment: MLN4924 1 uM, 8 h). For TRHEGSFQVPVLCAVMNVVFITIL [CD69], in that order: 2.76 ± 0.55 and 2.63 ± 0.58.

For RKMLEQGYSPNGRDANGWTLLHFS [ASB7], the protein stability index came to 2.34 ± 0.14 (treatment: DMSO) and 2.49 ± 0.21 (treatment: MLN4924 1 uM, 8 h).

Take MTSSSAYYYTKVMSELFLHTPSDT [PKD2L1]: the protein stability index runs as follows: (treatment: DMSO) 2.51 ± 0.28; (treatment: MLN4924 1 uM, 8 h) 2.16 ± 0.28. For PAIIFEDANLDECIPATVRSSFAN [ALDH8A1], in that order: 3.69 ± 0.15 and 3.72 ± 0.2.

On to RFLDYEMQNSNECKRNFVAVYDGS [NETO1], for which the protein stability index reads like this: (treatment: DMSO) 2.96 ± 0.24; (treatment: MLN4924 1 uM, 8 h) 3.31 ± 0.85.

For RKLLNRHNIVFGDYTWTEFDEPFL [TRIP13], the protein stability index stood at 2.24 ± 0.24 (treatment: DMSO) and 2.64 ± 0.22 (treatment: MLN4924 1 uM, 8 h). The corresponding values for AEGDSEGLSQGLVDREKGLSAEPG [CHGA] are 5.49 ± 0.23 and 5.49 ± 0.4. The corresponding values for QGLRPRTVSSPIPYTPSPSSSRPI [CCDC6] are 4.64 ± 0.22 and 4.7 ± 0.16. The corresponding values for VQQQKLAEERRRQNLQEEKERKLE [FAF2] are 4.87 ± 0.15 and 5.19 ± 0.43. LLGEETPMAADEGSAEKQAGEAHM [EHMT1]: the protein stability index is, setting by setting: (treatment: DMSO) 5.66 ± 0.31; (treatment: MLN4924 1 uM, 8 h) 5.57 ± 0.38.

As for MEKYEKLAKTGEGSYGVVFKCRNK [CDKL4], the protein stability index runs as follows: (treatment: DMSO) 3.78 ± 0.19; (treatment: MLN4924 1 uM, 8 h) 3.67 ± 0.26. In the case of FSSERGPRMCRYVRERDRLGNEYP [CDC25A], the protein stability index reads like this: (treatment: DMSO) 2.93 ± 0.29; (treatment: MLN4924 1 uM, 8 h) 2.61 ± 0.58. For SVAPMNVRRGLAGATTLGDMIYVS [KLHL12], in that order: 2.78 ± 0.53 and 2.96 ± 0.5. The corresponding values for IKEIDEHAPGVPRILVGNRLHLAF [RAB40C] are 2.21 ± 0.21 and 2.06 ± 0.28. Regarding NLYVFGGYNPDYDESGGPDNEDYP [KLHDC10], the protein stability index came out at 3.9 ± 0.28 (treatment: DMSO) and 4.09 ± 0.22 (treatment: MLN4924 1 uM, 8 h). As for QSCARAVVPSYIPLVKKHCDDSFT [CPOX], the protein stability index is 2.73 ± 0.2 (treatment: DMSO) and 2.71 ± 0.27 (treatment: MLN4924 1 uM, 8 h). For KVAKLLGYSTHADFVLEMNTAKST [NLN], the protein stability index (treatment: DMSO) was determined as 1.9 ± 0.33 and the protein stability index (treatment: MLN4924 1 uM, 8 h) worked out at 2.35 ± 0.24. For the sequence DVESGQLLQSFHGHGADVLCLDLA [GNB5], the protein stability index is, setting by setting: (treatment: DMSO) 3.69 ± 0.28; (treatment: MLN4924 1 uM, 8 h) 3.81 ± 0.31. With ALRAQRASSNVFSNFEQTQIQEFK [MYL5], the protein stability index was determined as 4.07 ± 0.27 (treatment: DMSO) and 3.93 ± 0.23 (treatment: MLN4924 1 uM, 8 h).

With YLELDRLVWRNSIRSSFISSLSFF [FBXO39], the protein stability index is 2.86 ± 0.37 (treatment: DMSO) and 2.95 ± 0.45 (treatment: MLN4924 1 uM, 8 h). As for VRLRTLLCKVLGVLFSVAGGLFVG [CLCN6], the protein stability index reads like this: (treatment: DMSO) 2.87 ± 0.14; (treatment: MLN4924 1 uM, 8 h) 2.88 ± 0.17. The sequence EESILERVQQHIESKLLGSNSSRM [MLH1] yielded a protein stability index (treatment: DMSO) of 3.96 ± 0.15 and a protein stability index (treatment: MLN4924 1 uM, 8 h) of 3.92 ± 0.11. For the sequence SELCIWLGSQIKSLCNLEESITSA [FAM98B], the protein stability index reads like this: (treatment: DMSO) 1.97 ± 0.23; (treatment: MLN4924 1 uM, 8 h) 2.55 ± 0.18. For AYPLELQGQPDPAPRPGPPAGTPP [MOSPD3], in that order: 5.14 ± 0.23 and 5.01 ± 0.14. In the case of DSEHEPVYRAELVGELNGYLRDSS [PWWP2B], the protein stability index runs as follows: (treatment: DMSO) 4.46 ± 0.14; (treatment: MLN4924 1 uM, 8 h) 4.45 ± 0.16. RSLQDGTREGFGHSTSLKVPLARS [LCOR]: the protein stability index runs as follows: (treatment: DMSO) 4.38 ± 0.27; (treatment: MLN4924 1 uM, 8 h) 4.37 ± 0.12. For SVSNSTQTSSSSSQSETSSAVSTP [DLC1], in that order: 5.5 ± 0.1 and 5.43 ± 0.23. The corresponding values for EEDFDSEQLSVLASCLQELFKAHF [INTS3] are 2.24 ± 0.078 and 2.49 ± 0.29.

In the case of LEKDFSIYGGELGPMMKLKRHFVA [ACSBG2], the protein stability index runs as follows: (treatment: DMSO) 2.23 ± 0.2; (treatment: MLN4924 1 uM, 8 h) 2.26 ± 0.53. For the sequence PLFMAAFDGRHSQTLKAMVQAWPF [PRAME], the protein stability index by setting is: (treatment: DMSO) 2.16 ± 0.13; (treatment: MLN4924 1 uM, 8 h) 2.07 ± 0.31. For GGIVTDTPASNHLPGWEDIESKIP [SLC19A2], in that order: 4.77 ± 0.17 and 4.87 ± 0.12.

For VQRVMAQALGIPATECEFVGSLPV [LPCAT4], the protein stability index came out at 2.78 ± 0.25 (treatment: DMSO) and 2.76 ± 0.3 (treatment: MLN4924 1 uM, 8 h). For ELVGSGYRMSLVKRRFATGMYLVS [FCHO1], in that order: 2.46 ± 0.64 and 2.26 ± 0.43. VCYTACATLKGPDSHYGTKGLKKV [BTBD1]: the protein stability index reads like this: (treatment: DMSO) 3.06 ± 0.42; (treatment: MLN4924 1 uM, 8 h) 3.21 ± 0.23. The corresponding values for QQIHVVSQFKILVSLLENNIYVHD [VPS39] are 3.08 ± 0.059 and 3.23 ± 0.28.

In turn, LYLIAKRNRKLKCTFSLTHPANRS [SLC22A15] gave a protein stability index (treatment: DMSO) of 2.49 ± 0.41 and a protein stability index (treatment: MLN4924 1 uM, 8 h) of 2.41 ± 0.17. The corresponding values for HLDIWKSAAWMKERTSPGAIHYCA [SPDEF] are 2.21 ± 0.39 and 2.4 ± 0.32. Turning to PFHDSDPSALFSKIRRGQFCIPEH [TRIB1], the protein stability index reads like this: (treatment: DMSO) 3.13 ± 0.25; (treatment: MLN4924 1 uM, 8 h) 3.12 ± 0.44.

PDPPVNFLRQKVLSLPLPDPLKYY [PCMTD2] showed a protein stability index (treatment: DMSO) of 2.85 ± 0.13 and a protein stability index (treatment: MLN4924 1 uM, 8 h) of 2.93 ± 0.079. For DFSSGGAAAAAAPAPPPPAGGATA [SNAP91], the protein stability index is, setting by setting: (treatment: DMSO) 5.39 ± 0.3; (treatment: MLN4924 1 uM, 8 h) 5.37 ± 0.15.
